Assay results reported in patent US20200369729A1 (CENTRE NATIONAL DE LA RECHERCHE SCIENTIFIQUE, published 2020).
*: point of attachment. Succinimide(1-Et,3-yl) = CCN1C(=O)CC(*)C1=O

Molecular target: the molecule itself
Test: self-association, analytical gel filtration in 20 mM phosphate buffer, 150 mM NaCl, pH 7.4
Procedure: (A) Schematic representation of the four 40-amino acid peptides named MUB₄₀#1, MUB₄₀#2, MUB₄₀#3, MUB₄₀#4, overlapping and covering the MUB₇₀ sequence (Coïc et al., 2012) (from C-terminal to N-terminal, see FIG. 2). (B) Human colonic mucus layer was labelled with the MUB₄₀#1-Cy5 fluorescent conjugate (1 μg/mL, magenta). (C) Colonic goblet cell granules were labelled with MUB₄₀#1-Cy5 (1 μg/mL, magenta), which was not the case for MUB₇₀-Cy5 (Coïc et al., 2012) or MUB₄₀#2-#4 peptides (data not shown). Actin (red); bar, 20 μm. (D) Elution profiles of MUB₄₀ peptides (#1-#4) were obtained by analytical gel filtration (absorbance at 280 nm). Samples were prepared at 10 μg/ml in the elution buffer (20 mM phosphate buffer, 150 mM NaCl, pH7.4). MUB₄₀#1 assembled as a trimer, similarly to MUB₇₀ (Coïc et al., 2012), not MUB₄₀#2, MUB₄₀#3, and MUB₄₀#4. […] (E) Far-UV Circular Dichroism spectra of the four MUB₄₀ peptides at 60 μM in 20 mM sodium phosphate buffer (pH 7.4) in the presence of 50 mM NaCl, showing a specific structural signal of MUB₄₀#1, compared to others peptides. (F) A human colonic explant was infected with Shigella flexneri pGFP (green) and labelled with MUB₄₀#1-Cy5 (1 μg/mL, magenta) and Dapi (blue) after fixation and permeabilization. The colonic mucus layer and infiltrated neutrophils (see (G)), were labelled with MUB₄₀#1-Cy5, as imaged by two-photon microscopy. Bar, 50 μm (G) The labelling of polymorphonuclear neutrophils with MUB₄₀#1-Cy5 (1 μg/mL, magenta) was confirmed on human purified neutrophils, showing a granular staining. Nucleus was stained with Dapi (blue). Bar, 5 μm.

Protein | binding result
Ac-C(Succinimide(1-Et,3-yl))GYTDETIPYSTAEGIKKFEGDGYELFKDNFPAGEKFDNDD-NH2 (not fully specified, Unlabelled peptide as used in analytical gel filtration; 'rather organized as tetramers') [MUB40#2] | binds
Ac-C(Succinimide(1-Et,3-yl))DQMLRQDDLDGYTDETIPYSTAEGIKKFEGDGYELFKDNF-NH2 (not fully specified, Unlabelled peptide as used in analytical gel filtration; 'rather organized as tetramers') [MUB40#3] | binds
Ac-C(Succinimide(1-Et,3-yl))TAEGIKKFEGDGYELFKDNFPAGEKFDNDDTNDQFYTVIF-NH2 (not fully specified, Unlabelled peptide as used in analytical gel filtration; trimer) [MUB40#1] | binds
Ac-C(Succinimide(1-Et,3-yl))VHVQYIDGETDQMLRQDDLDGYTDETIPYSTAEGIKKFEG-NH2 (not fully specified, Unlabelled peptide as used in analytical gel filtration; 'rather organized as tetramers') [MUB40#4] | binds
